# Assay results as given in patent publication US6869925 (Amgen, dated 2005).
# Experiments:
# [1] = target: SLPI binding sites on HuT78 cells (human T cell line) (human); test: competition with 125I-SLPI, intact HuT78 cells, cold SLPI at 0.00 nM
# [2] = target: SLPI binding sites on HuT78 cells (human T cell line) (human); test: competition with 125I-SLPI, intact HuT78 cells, competitor at 0 nM
# [3] = target: SLPI binding sites on U937 cells (human monocyte cell line; intact cells, PMA-induced cells or plasma membranes) (human); test: 125I-SLPI saturation binding, intact U937 cells, *SLPI at 640 pM
# [4] = target: SLPI binding sites on U937 cells (human monocyte cell line; intact cells, PMA-induced cells or plasma membranes) (human); test: 125I-SLPI saturation binding, U937 cells minus PMA, *SLPI at 10,240 pM
# [5] = target: SLPI binding sites on U937 cells (human monocyte cell line; intact cells, PMA-induced cells or plasma membranes) (human); test: 125I-SLPI saturation binding, U937 cells plus PMA, *SLPI at 1,280 pM
# [6] = target: SLPI binding sites on U937 cells (human monocyte cell line; intact cells, PMA-induced cells or plasma membranes) (human); test: 125I-SLPI saturation binding, intact U937 cells, *SLPI at 20,480 pM
# [7] = target: SLPI binding sites on HuT78 cells (human T cell line) (human); test: competition with 125I-SLPI, intact HuT78 cells, competitor at 8.2 nM
# [8] = target: SLPI binding sites on U937 cells (human monocyte cell line; intact cells, PMA-induced cells or plasma membranes) (human); test: 125I-SLPI saturation binding, intact U937 cells, *SLPI at 5120 pM
# [9] = target: SLPI binding sites on HuT78 cells (human T cell line) (human); test: competition with 125I-SLPI, intact HuT78 cells, cold SLPI at 0.024 nM
# [10] = target: SLPI binding sites on U937 cells (human monocyte cell line; intact cells, PMA-induced cells or plasma membranes) (human); test: competition with 125I-SLPI, intact U937 cells, competitor at 84 nM
# [11] = target: SLPI binding sites on U937 cells (human monocyte cell line; intact cells, PMA-induced cells or plasma membranes) (human); test: 125I-SLPI saturation binding, intact U937 cells, *SLPI at 1280 pM
# [12] = target: SLPI binding sites on U937 cells (human monocyte cell line; intact cells, PMA-induced cells or plasma membranes) (human); test: 125I-SLPI saturation binding, U937 cells plus PMA, *SLPI at 20,480 pM
# [13] = target: SLPI binding sites on HuT78 cells (human T cell line) (human); test: 125I-SLPI saturation binding, intact HuT78 cells, *SLPI at 2560 pM
# [14] = target: SLPI binding sites on HuT78 cells (human T cell line) (human); test: 125I-SLPI saturation binding, intact HuT78 cells, *SLPI at 160 pM
# Chain of serine leukocyte protease inhibitor (SLPI) (P03973 26-132): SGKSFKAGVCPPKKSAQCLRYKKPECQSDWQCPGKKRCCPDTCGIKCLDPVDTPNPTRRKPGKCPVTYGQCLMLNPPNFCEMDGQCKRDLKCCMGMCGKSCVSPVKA
substance,measurement,setting,value
serine leukocyte protease inhibitor (SLPI) (from UniProt P03973 26-132),% *SLPI BOUND,[1],100%
same,% *SLPI BOUND,[2],100%
same,bound *SLPI (pM),[3],116 pM
same,bound per free,[3],0.221
same,sites bound per cell (sites per cell),[3],6990
same,specific cpm,[3],4630 cpm
same,bound *SLPI (pM),[4],844 pM
same,bound per free,[4],0.09
same,sites bound per cell (sites per cell),[4],50800
same,specific cpm,[4],9020 cpm
same,bound pM,[5],130 pM
same,bound per free,[5],0.113
same,sites bound per cell (sites per cell),[5],7830
same,specific cpm,[5],1390 cpm
same,bound *SLPI (pM),[6],471 pM
same,bound per free,[6],0.024
same,sites bound per cell (sites per cell),[6],28400
same,specific cpm,[6],18800 cpm
same,% *SLPI BOUND,[7],57%
same,bound *SLPI (pM),[8],379 pM
same,bound per free,[8],0.08
same,sites bound per cell (sites per cell),[8],22800
same,specific cpm,[8],15100 cpm
same,% *SLPI BOUND,[9],88%
same,% *SLPI BOUND,[10],7%
same,bound *SLPI (pM),[11],217 pM
same,bound per free,[11],0.204
same,sites bound per cell (sites per cell),[11],13100
same,specific cpm,[11],8650 cpm
same,bound pM,[12],255 pM
same,bound per free,[12],0.0126
same,sites bound per cell (sites per cell),[12],15400
same,specific cpm,[12],2720 cpm
same,bound pM,[13],9.98 pM
same,bound per free,[13],0.0039
same,sites bound per cell (sites per cell),[13],501
same,specific cpm,[13],398 cpm
same,bound pM,[14],0.93 pM
same,bound per free,[14],0.0058
same,sites bound per cell (sites per cell),[14],56
same,specific cpm,[14],37 cpm
